Data from publication PMC11624268, “Leishmania protein KMP-11 modulates cholesterol transport and membrane fluidity to facilitate host cell invasion” (EMBO Reports, 2024).

B1: purified recombinant KMP-11 (kinetoplastid membrane protein-11), wild type (natural protein)
chain: MATTYEEFSAKLDRLDQEFNRKMQEQNAKFFADKPDESTLSPEMREHYEKFERMIKEHTEKFNKKMHEHSEHFKQKFAELLEQQKAAQYPSK
notes: amino-terminal stretch (1-19) of kinetoplastid membrane protein-11 (KMP-11), Leishmania donovani (so in the source); rest of kinetoplastid membrane protein-11 (KMP-11), Leishmania donovani, after the printed stretch 1-19; Purification by the procedure of Sharma et al, 2013; also called r-KMP-11; WT KMP-11; source: pET28a, bacterial culture, purified (Ni-NTA, endotoxin removal column, gel …)

How the values were obtained:
[1] = biological target: the molecule itself; assay: negative stain TEM; purified KMP-11 (0.1 mg/ml) in the presence of DPPC ERG (30%) SUVs; 50 mM tris pH 8.0, 150 mM NaCl; 1% uranyl acetate
[2] = biological target: B1; assay: fluorescence correlation spectroscopy (FCS); 50 nM Alexa488Maleimide labeled r-KMP-11 in the presence of unlabeled r-KMP-11 at different total concentrations; diffusion time read out; in the absence and presence of different salt concentrations (salt facilitates self-association); conditions: both partners purified
[3] = biological target: the molecule itself; assay: single molecule photobleaching step analysis (TIRF microscopy); 50 nM Alexa-488 maleimide labeled KMP-11 (S38C) on PEG cushioned supported bilayer of DPPC-ERG (30%); 30 min incubation; manual step counts from 235 spots

Binder | stoichiometry N [1] | binding result [2] | stoichiometry N [3]
B1 | 4 |  | 
Alexa488-maleimide labeled r-KMP-11 S38C (kinetoplastid membrane protein-11, single cysteine mutant) (natural protein, Alexa-488 maleimide on the single cysteine (S38C); labeling percentage 86%, amino-terminal stretch (1-19) of kinetoplastid membrane protein-11 (KMP-11), Leishmania donovani (so in the source); rest of kinetoplastid membrane protein-11 (KMP-11), Leishmania donovani, after the printed stretch 1-19; The labeled protein was passed through Ni NTA after labeling, so the tag was probably still there; Purification by the procedure of Sharma et al, 2013; also called …) MATTYEEFSAKLDRLDQEFNRKMQEQNAKFFADKPDECTLSPEMREHYEKFERMIKEHTEKFNKKMHEHSEHFKQKFAELLEQQKAAQYPSK |  | binds | 4
